This data set concerns His-ArgR2 (Lactiplantibacillus plantarum AR195). Kind of data set: BLI. Conditions: ArgR2 256-4097 nM; BLI: 10 mM HEPES pH 8.0, 2 mM MgCl2, 0.1 mM EDTA, 200 mM KCl, 1 per mille (w/v) BSA and 2 per mille (v/v) Tween 20 in protein buffer; temperature not stated. ….

Some results are limits rather than exact numbers.

Substance cla promoter probe had a Kd of less than 1 pM.

Usually Kd stands for the free concentration of one partner at which half of the binding sites on the other are occupied at equilibrium, for simple one-to-one binding. Lower therefore signals a tighter complex.

For the origin of these results see paper PMC9241672.
